Assays:
haptoglobin protein [1] = assay: Kidney haptoglobin protein (ELISA); type: in vivo, CD-1 mice
Method: (§1) Thirty-two mice were divided into 4 equal groups: (1) control mice; (2) mice treated with 1 mg of N-Mgb injection (as a bolus through the tail vein); (3) mice treated with […] of SnPP (via tail vein); and (4) mice treated with combined N-Mgb 1 SnPP. After either 4 hours (n=16) or 18 hours (n=16), the mice were deeply anesthetized with pentobarbital (50 mg/kg), the abdomen was opened through a midline abdominal incision, and the kidneys were removed. To determine potential effects on extrarenal organs, a liver lobe and the heart were also removed. The tissues were iced and then extracted for protein and RNA (RNeasy Plus Mini; Qiagen, Valencia, Calif.) and subjected to enzyme linked immunosorbent assay (ELISA) and reverse transcriptase polymerase chain reaction (RT-PCR) for HO-1, haptoglobin, and IL-10 protein and messenger RNAs (mRNAs). Zager et al. J Am Soc Nephrol 2014; 25:998-1012; Zager et al. Am J Physiol 2012; 303:F139-48. As an assessment of renal function, control mice and the 18 hour after N-Mgb+SnPP-treated mice had blood urea nitrogen (BUN) and plasma creatinine levels measured. Additionally, transverse 10% formalin fixed kidney sections ([…]) were cut and stained with hematoxylin and eosin (H&E) and periodic acid Schiff (PAS) to further assess potential injury.

IL-10 protein [2] = assay: Liver IL-10 protein (ELISA); type: in vivo, CD-1 mice
Method: as §1

HO-1 mRNA [3] = assay: Kidney HO-1 mRNA (RT-PCR); type: in vivo, CD-1 mice
Method: as §1

HO-1 mRNA [4] = assay: Liver HO-1 mRNA (RT-PCR); type: in vivo, CD-1 mice
Method: as §1

haptoglobin mRNA [5] = assay: Cardiac haptoglobin mRNA (RT-PCR); type: in vivo, CD-1 mice
Method: as §1

IL-10 mRNA [6] = assay: Kidney IL-10 mRNA (RT-PCR); type: in vivo, CD-1 mice
Method: as §1

[7] = tested on: glycerol model of rhabdomyolysis-induced AKI; assay: Glycerol model of rhabdomyolysis-induced AKI; type: in vivo, CD-1 mice; conditions: IV pretreatment 18 h before glycerol; 18 hours after glycerol
Method: Assessments of cytoresistance. Glycerol model of rhabdomyolysis-induced AKI. Twenty mice were divided into 4 equal groups (controls, mice treated with N-Mgb, SnPP, and mice treated with N-Mgb+SnPP tail vein injections) as described previously. 18 hours later, the mice were briefly anesthetized with isoflurane and immediately injected with 9 mL/kg of 50% glycerol, administered in equally divided doses into each hind limb. At 18 hours after glycerol injection, the mice were anesthetized with pentobarbital, the abdomen was opened, a blood sample for BUN and creatinine assessments was obtained from the vena cava, and the kidneys were resected. The control post-glycerol group and the N-Mgb+SnPP-pretreated glycerol group had kidney sections stained with H&E.
To assess whether the previously determined plasma and kidney HO-1 and haptoglobin levels correlated with degrees of cytoresistance, additional mice were injected with 0, 2.5, or 5 mg of N-Mgb […] of SnPP (n=3 mice per group). Eighteen hours later, all mice were subjected to the glycerol AKI model as described previously. Severities of AKI were determined 18 hours after glycerol injection by BUN and plasma creatinine analyses.
Calculations and statistics. All values are given as the mean […] standard error of the mean. Statistical comparisons were made by unpaired Student's t test. […]

haptoglobin protein [8] = assay: Liver haptoglobin protein (ELISA); type: in vivo, CD-1 mice; parameters: unit not given beside the values
Method: as §1

IL-10 mRNA [9] = assay: Cardiac IL-10 mRNA (RT-PCR); type: in vivo, CD-1 mice
Method: as §1

[10] = Serum creatinine after 2 hr subcutaneous infusion of nitrited myoglobin + SnPP; type: in vivo, mice; conditions: 2 hr SC infusion 1, 3, 6, 12, or 25 mg/Kg + 1 μmole SnPP; 18 hrs later
Method: Mice were subjected to a 2 hr subcutaneous infusion of 1, 3, 6, 12, or 25 mg/Kg of nitrited myoglobin (holding SnPP at a constant dose of 1 μmole). Eighteen hrs later, potential renal injury was assessed by measuring serum creatinine concentrations.
An obvious concern by applying this prophylactic strategy to patients is potential renal and/or extrarenal toxicities. […] Furthermore, it was previously documented in a cell culture system that nitrite addition markedly reduces myoglobin's cytotoxic effects by 75% (unpublished data, 2014). To assess the potential in vivo margin of safety for N-Mgb+SnPP (see Supplemental FIGS.), the maximal amount of N-Mgb that could be given to mice before nephrotoxicity was observed was tested. Up to 25 times the employed N-Mgb dose (with a constant SnPP dose) could be administered (over 2 hours) without induction of nephrotoxicity (normal BUN and creatinine, 18 hours later).

HO-1 protein [11] = assay: Kidney HO-1 protein (ELISA); type: in vivo, CD-1 mice
Method: as §1

IL-10 protein [12] = assay: Kidney IL-10 protein (ELISA); type: in vivo, CD-1 mice
Method: as §1

HK-2 cells = assay: HK-2 cell injury by MTT assay; type: cell-based; conditions: 10 mg/ml, equimolar Na nitrite, 18 hr incubation
Method: HK-2 cells (a proximal tubule cell line derived from normal human kidney) were incubated in keratinocyte serum free medium either under normal (control) conditions or in the presence of 10 mg/mL horse skeletal muscle myoglobin or nitrited myoglobin (produced by equimolar Na nitrite addition to 10 mg/ml myoglobin). After 18 hr incubations, the severity of cell injury (% cell death) was assessed by MTT assay. Myoglobin induced 40% cell death (40% decrease in MTT cell uptake), compared to control incubated cells. Nitrite binding to myoglobin reduced cell death by 75%. Thus, nitrite binding is able to reduce myoglobin's cytotoxic effects.

IL-10 mRNA [13] = assay: Liver IL-10 mRNA (RT-PCR); type: in vivo, CD-1 mice
Method: as §1

haptoglobin mRNA [14] = assay: Kidney haptoglobin mRNA (RT-PCR); type: in vivo, CD-1 mice
Method: as §1

HO-1 mRNA [15] = assay: Cardiac HO-1 mRNA (RT-PCR); type: in vivo, CD-1 mice
Method: as §1

HO-1 protein [16] = assay: Liver HO-1 protein (ELISA); type: in vivo, CD-1 mice; parameters: unit not given beside the values
Method: as §1

haptoglobin protein [17] = assay: Cardiac haptoglobin protein (ELISA); type: in vivo, CD-1 mice
Method: as §1

IL-10 protein [18] = assay: Cardiac IL-10 protein (ELISA); type: in vivo, CD-1 mice
Method: as §1

haptoglobin mRNA [19] = assay: Liver haptoglobin mRNA (RT-PCR); type: in vivo, CD-1 mice
Method: as §1

HO-1 protein [20] = assay: Cardiac HO-1 protein (ELISA); type: in vivo, CD-1 mice; conditions: 4 h after IV injection
Method: as §1

[21] = 4 h after IV injection, N-Mgb 1 mg, SnPP 1 mmol [sic]

B1: N-Mgb: horse myoglobin converted into a nitrited form by addition of equimolar sodium nitrite (protein, UniProt P68082 2-154, looked up)
Myoglobin: GLSDGEWQQVLNVWGKVEADIAGHGQEVLIRLFTGHPETLEKFDKFKHLKTEAEMKASEDLKKHGTVVLTALGGILKKKGHHEAELKPLAQSHATKHKIPIKYLEFISDAIIHVLHSKHPGDFGADAQGAMTKALELFRNDIAAKYKELGFQG
modifications: nitrite-modified
notes: horse myoglobin converted into a nitrited form by addition of equimolar sodium nitrite
With B1 the “Renal haptoglobin protein levels, in words” value (haptoglobin protein [1]; 18-hour time point, vs combination) was “comparably increased”, the “Kidney Haptoglobin protein” value (haptoglobin protein [1]; [21]) was 17.6 ± 1^ and the “Kidney protein Haptoglobin” value (haptoglobin protein [1]; 18 h after IV injection) was 183.8 ± 20.4. The “Liver protein IL-10” value (IL-10 protein [2]; 4 h after IV injection) was 286 ± 32, the “Liver protein IL-10” value (IL-10 protein [2]; 18 h after IV injection) was 5988 ± 549 and the “Kidney mRNA HO-1” value (HO-1 mRNA [3]; [21]) was 3.38 ± 0.38. For the same molecule, the “Renal HO-1 mRNA increase, in words” value (HO-1 mRNA [3]; 4 hour, agent alone) was “only modest increases”, the “Kidney mRNA cortex HO-1” value (HO-1 mRNA [3]; 18 h after IV injection) was 0.58 ± 0.18 and the “Liver mRNA HO-1” value (HO-1 mRNA [4]; 4 h after IV injection) was 1.83 ± 0.33. For the same molecule, the “Liver mRNA HO-1” value (HO-1 mRNA [4]; 18 h after IV injection) was 0.82 ± 0.07, the “Cardiac mRNA Haptoglobin” value (haptoglobin mRNA [5]; 4 h after IV injection) was 0.75 ± 0.10 and the “Cardiac mRNA Haptoglobin” value (haptoglobin mRNA [5]; 18 h after IV injection) was 0.53 ± 0.21. For the same molecule, the “Impact on renal IL-10 mRNA levels, in words” value (IL-10 mRNA [6]; 4-hour time point, agent alone) was “either minimal or no impact”, the “Kidney mRNA IL-10” value (IL-10 mRNA [6]; [21]) was 1.45 ± 0.6 and the “Kidney mRNA cortex IL-10” value (IL-10 mRNA [6]; 18 h after IV injection) was 0.43 ± 0.10. The “Protection against glycerol-induced AKI judged by BUN/creatinine levels” value [7] was “modest protection”, the “Liver protein Haptoglobin” value (haptoglobin protein [8]; 4 h after IV injection) was 359.5 ± 39.6 and the “Liver protein Haptoglobin” value (haptoglobin protein [8]; 18 h after IV injection) was 358.8 ± 32.8. The “Cardiac mRNA IL-10” value (IL-10 mRNA [9]; 4 h after IV injection) was 0.86 ± 0.11, the “Cardiac mRNA IL-10” value (IL-10 mRNA [9]; 18 h after IV injection) was 0.67 ± 0.10 and the “Serum creatinine concentration change” value [10] was “No significant increase”. The “Renal HO-1 protein increase, in words” value (HO-1 protein [11]; 18-hour time point, agent alone) was “only relatively small HO-1 protein increases”, the “Kidney HO-1 protein” value (HO-1 protein [11]; [21]) was 36.1 ± 2.9 and the “Kidney protein HO-1” value (HO-1 protein [11]; 18 h after IV injection) was 30 ± 6. For the same molecule, the “Kidney IL-10 protein” value (IL-10 protein [12]; [21]) was 265 ± 54, the “Kidney protein IL-10” value (IL-10 protein [12]; 18 h after IV injection) was 292 ± 54 and the “Renal IL-10 protein increase, in words” value (IL-10 protein [12]; 18 hours, agent alone) was “absence of IL-10 protein increases”. The “Reduction of myoglobin-induced cell death by nitrite binding” value (HK-2 cells) was 75%, the “Liver mRNA IL-10” value (IL-10 mRNA [13]; 4 h after IV injection) was 0.67 ± 0.46 and the “Liver mRNA IL-10” value (IL-10 mRNA [13]; 18 h after IV injection) was 0.06 ± 0.02. The “Kidney mRNA Haptoglobin” value (haptoglobin mRNA [14]; [21]) was 1.94 ± 0.31, the “Kidney mRNA cortex Haptoglobin” value (haptoglobin mRNA [14]; 18 h after IV injection) was 0.24 ± 0.04 and the “Cardiac mRNA HO-1” value (HO-1 mRNA [15]; 4 h after IV injection) was 0.09 ± 0.01. For the same molecule, the “Cardiac mRNA HO-1” value (HO-1 mRNA [15]; 18 h after IV injection) was 0.08 ± 0.01, the “Liver protein HO-1” value (HO-1 protein [16]; 4 h after IV injection) was 17 ± 2 and the “Liver protein HO-1” value (HO-1 protein [16]; 18 h after IV injection) was 14.9 ± 0.3. For the same molecule, the “Cardiac protein Haptoglobin” value (haptoglobin protein [17]; 4 h after IV injection) was 40.4 ± 8.6, the “Cardiac protein Haptoglobin” value (haptoglobin protein [17]; 18 h after IV injection) was 249.6 ± 15.0 and the “Cardiac Protein IL-10” value (IL-10 protein [18]; 4 h after IV injection) was 21 ± 12. The “Cardiac protein IL-10 (L-10 [sic])” value (IL-10 protein [18]; 18 h after IV injection) was 14.5 ± 10^, the “Liver mRNA Haptoglobin” value (haptoglobin mRNA [19]; 4 h after IV injection) was 0.98 ± 0.1 and the “Liver mRNA Haptoglobin” value (haptoglobin mRNA [19]; 18 h after IV injection) was 0.91 ± 0.07. The “Cardiac protein HO-1” value (HO-1 protein [20]) was 1.64 ± 0.19.
